# T1: API5(Apoptosis inhibitor protein 5) 단백질, Expi293 세포에서 일시발현 후 정제 (human, UniProt Q9BZZ5-2 1-504)
# T1 construct: also called rhAPI5; AAC-11
# T1 sequence: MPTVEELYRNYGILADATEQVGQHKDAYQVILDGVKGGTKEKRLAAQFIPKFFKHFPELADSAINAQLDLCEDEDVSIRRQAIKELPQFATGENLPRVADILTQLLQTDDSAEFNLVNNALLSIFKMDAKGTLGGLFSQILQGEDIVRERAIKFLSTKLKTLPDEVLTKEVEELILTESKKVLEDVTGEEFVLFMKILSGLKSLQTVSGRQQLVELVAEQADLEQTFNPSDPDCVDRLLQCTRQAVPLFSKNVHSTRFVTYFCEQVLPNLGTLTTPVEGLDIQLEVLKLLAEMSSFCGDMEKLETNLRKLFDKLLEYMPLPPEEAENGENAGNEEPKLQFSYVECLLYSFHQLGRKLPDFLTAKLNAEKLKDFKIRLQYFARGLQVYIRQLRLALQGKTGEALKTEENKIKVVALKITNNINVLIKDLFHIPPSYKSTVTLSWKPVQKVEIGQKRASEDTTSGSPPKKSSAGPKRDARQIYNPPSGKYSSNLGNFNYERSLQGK
# Legend:
# [1] = target: T1, API5(Apoptosis inhibitor protein 5) …; assay: SPR, Biacore T200, 3F2 serially diluted 3.125-100 nM (7 points including 0 nM)
# [2] = target: T1, API5(Apoptosis inhibitor protein 5) …; assay: ELISA, 3F2 serially diluted 3.125-200 nM (8 points including 0 nM)
binder,measurement,setting,value
"3F2 항체 (API5 표적 인간 항체 3F2) (antibody, V domains shown, Purified 3F2 antibody as used in the ELISA and SPR; IgG is used as the control in later experiments; also called API5 항체 3F2; 3F2 antibody) VH: not shown VL: DIQMTQSPSSLSASVGDRVTITCRASQSISRYLNWYQQKPGKAPKLLIYAASTLQSGVPSRFSGSGSGTDFTLTISSLQPEDFATYYCQQSYSFPWTFGQGTKVEIK",Kd,[1],4.62 nM
same,Kd,[2],1.2 nM
